In US20100196385A1 (AstraZeneca / MedImmune, published 2010) one finds IC50 data, which are given here for eleven molecules.

B1: 2H10 IgG2 VH M93V/VL C33S (antibody, V domains shown)
VH: QVQLVESGGGVVQPGRSLRLSCAASGFTFSRHGMHWVRQAPGKGLEWVAVVWFDGSNIYYADSVKGRFTISRDNSKNTLYLQMNSLRAEDTAVYYCARDSRIAAADYWGQGTLVTVSS
VL: SYELTQPPSVSVSPGQTVSITCSGDKLGDKYVSWYQQKPGQSPVLVIYQESKRPSGIPERFSGSSSGNTATLTISGTQAMDEADYYCQTWDSSLVVFGGGTKLTVL
notes: IgG2
B2: 2H10 IgG2 VH wt/VL C33A (antibody, V domains shown)
VH: B1 VH with V93M
VL: B1 VL with S33A
notes: IgG2
B3: 2H10 IgG2 VH wt/VL C33R (antibody, V domains shown)
VH: B1 VH with V93M
VL: B1 VL with S33R
notes: IgG2
B4: 2H10 IgG2 VH M93V/VL wt (antibody, V domains shown)
VH: B1 VH
VL: B1 VL with S33C
notes: IgG2
B5: 2H10 IgG2 VH wt/VL C33G (antibody, V domains shown)
VH: B1 VH with V93M
VL: B1 VL with S33G
notes: IgG2
B6: 2H10 IgG2 VH wt/VL C33D (antibody, V domains shown)
VH: B1 VH with V93M
VL: B1 VL with S33D
notes: IgG2
B7: 9G8 IgG2 VH wt/VL C33A (antibody, V domains shown)
VH: QLQLQESGPGLVKPSETLSLSCTVSGGSISSSSSYWGLIRQPPGKGLEWIGSIYYSGSTYYSPSLKSRVSISVDTSKNQFSLKLSSVTAADTAVYFCARQGYGGHPDVFDIWGQGTMVTVSS
VL: SSELTQSPSVSVSPGQTARITCSGDKLGDVYVAWYQQKTGQSPVLVIYEDTKRPSGIPERFSGSNSGNTATLTISGTQVMDEADYYCQAWDSTTAVIFGGGTKLTVL
notes: IgG2
B8: 9G8 IgG2 VH wt/VL C33R (antibody, V domains shown)
VH: B7 VH
VL: B7 VL with A33R
notes: IgG2
B9: 9G8 IgG2 VH wt/VL C33D (antibody, V domains shown)
VH: B7 VH
VL: B7 VL with A33D
notes: IgG2
B10: 9G8 IgG2 VH wt/VL C33Y (antibody, V domains shown)
VH: B7 VH
VL: B7 VL with A33Y
notes: IgG2
B11: 9G8 IgG2 VH wt/VL C33G (antibody, V domains shown)
VH: B7 VH
VL: B7 VL with A33G
notes: IgG2

Where a chain is given by its changes, count along the chain named. Names and notes keep the numbering of the source.

T1 sequence (Q9NR61 27-685): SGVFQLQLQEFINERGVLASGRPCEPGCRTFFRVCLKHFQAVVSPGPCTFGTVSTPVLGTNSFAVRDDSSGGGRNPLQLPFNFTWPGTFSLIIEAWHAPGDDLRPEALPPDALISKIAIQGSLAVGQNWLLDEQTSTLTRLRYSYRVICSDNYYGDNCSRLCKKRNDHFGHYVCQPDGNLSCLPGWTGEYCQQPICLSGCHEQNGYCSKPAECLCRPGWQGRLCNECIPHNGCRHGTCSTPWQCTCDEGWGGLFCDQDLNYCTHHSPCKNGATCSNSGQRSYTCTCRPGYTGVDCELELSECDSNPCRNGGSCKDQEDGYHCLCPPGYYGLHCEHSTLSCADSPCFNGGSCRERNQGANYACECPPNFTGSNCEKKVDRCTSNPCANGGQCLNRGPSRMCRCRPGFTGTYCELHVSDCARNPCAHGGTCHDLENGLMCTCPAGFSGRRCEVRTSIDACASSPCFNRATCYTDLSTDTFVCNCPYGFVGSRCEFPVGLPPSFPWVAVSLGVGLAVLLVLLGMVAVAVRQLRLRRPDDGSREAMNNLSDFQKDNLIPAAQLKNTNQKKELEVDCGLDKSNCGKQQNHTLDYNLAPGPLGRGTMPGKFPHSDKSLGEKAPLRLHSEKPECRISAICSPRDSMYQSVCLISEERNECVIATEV

The experiment concerns the target T1, full length human DLL4 (human, UniProt Q9NR61 27-685).
T1 construct: whole, on cells; also called native DLL4 expressed in HEK293 cells
Nature of the experiment: FACS competition vs Notch1/Fc, HEK293 cells with human DLL4. As to the method: Further experiments were performed on selected antibodies using HEK293 cells that were stably transfected with either human, mouse or cynomolgus monkey DLL4 using retroviral constructs. In these experiments, anti-DLL4 antibodies (final concentration: 10-0.01 μg/ml) diluted in PBS containing 2% FCS were added to DLL4-expressing HEK 293 cells (50000 cells/well diluted in PBS containing 2% FCS) and incubated for 1 h at 4° C. Subsequently, Alexa-647 labeled human, rat or APC labeled mouse Notch1/Fc (e.g. R&D Systems, catalog #3647-TK-050, 1057-TK-050, 5267-TK-050, respectively) was added at a final concentration of 0.01-0.5 μg/ml and plates were incubated for a further 2 h at 4° C. prior to washing and reading on a FACSCalibur instrument.
The activity of the mutated antibodies was assessed in two ways: firstly, the ability of the antibodies to block the binding of soluble Notch1/Fc to full length human DLL4 stably expressed in HEK293 cells as described in Example 3 was determined and, secondly, the binding of the antibodies to the same cell line used in the receptor-ligand competition studies was determined. For the binding studies, HEK293 cells stably overexpressing human DLL4 were resuspended in PBS containing 2% FCS at a concentration of 50,000 cells/well and incubated with titrations of antibody (final concentrations 0.01-10 μg/ml) for 1 h at 4° C. The cells were then washed and incubated with 0.31 μg/ml anti-human IgG-Fc-FITC (BD Pharmingen, cat#555786) for 30 minutes at 4° C. Bound […] was detected using FACS analysis. Results of these studies are summarized in Table 23, which show the effects of specific mutations to sequences of 9G8 and 2H10 on the ability of the antibodies to compete with Notch1 for binding to human DLL4 or to bind to human DLL4 relative to unmutated antibodies.
B1 returned an IC50 of 0.138 µg/mL. Then B2, with 0.174 µg/mL; and B3, with 2.97 µg/mL. With B4 the figure was 0.264 µg/mL; with B5, 0.314 µg/mL. Then B6, with 0.178 µg/mL; and B7, with 0.302 µg/mL; and B8, with 0.201 µg/mL.

In turn, B9 showed an IC50 of 0.345 µg/mL. Then B10, with 0.32 µg/mL; and B11, with 0.358 µg/mL.
